Numbering of substitutions follows the chain as printed. Names may count otherwise.
Legend:
CD3ε27-GSKa [1] = target: T1, CD3ε27-GSKa (human); experiment: BLI (Octet), summary table repeating Table 4
T1 construct: also called Mature CD3ε27-GSKa
Method: (§1) Experiments were carried out while shaking at 1000 rpm and at 30° C.

CD3ε27-GSKa [2] = target: T1, CD3ε27-GSKa; experiment: BLI (Octet HTX), UniTE antibody on anti-human Fc sensors, CD3ε27-GSKa in solution, 1:1 fit
Method: as §1

[3] = target: T2, human CD3 on human T cells (human, UniProt P07766 23-207); experiment: flow cytometry on isolated human T cells, PE anti-human IgG detection
T2 construct: Natural CD3/TCR complex on T cells isolated from human donor buffy coats; The other chains of the complex (CD3γ, CD3δ, CD3ζ, polyclonal TCR) are also present on the cells
Method: (§2) T cells were Isolated from a buffy coat fraction of anti-coagulated human donor blood samples and resuspended in PBS/0.1% BSA/0.02% azide at 1.8×10E6 cells/mL. 50 μL of T cell suspension and 50 μL of the antibody dilutions were combined in a 96 well plate on ice, Incubated for 30 min at 4° C. and washed twice with PBS/0.1% BSA/0.02% azide. […] The cells were resuspended in 120 μL PBS/0.1% BSA/0.02% azide and PE geometric Mean Fluorescence Intensity was measured. Binding curves were analyzed using non-linear regression (sigmoidal dose-response with variable slope) using GraphPad Prism V5.04 software (GraphPad Software, San Diego, Calif., USA) and apparent affinity (KD) was derived from the concentration at half-maximal binding.

CD3ε27-GSKa [4] = target: T1, CD3ε27-GSKa; experiment: BLI (Octet HTX), IgG on anti-human Fc sensors, CD3ε27-GSKa 1000-1.4 nM in solution, 1:1 fit, average
Method: as §1
Data was analyzed with ForteBio Data Analysis Software v8.1, using the 1:1 model and a global full fit with 1000 s association time and 100 s dissociation time. […] Data traces with a response <0.05 nm were excluded from analysis.

[5] = target: T2, human CD3 on human T cells; experiment: flow cytometry on human T cells, PE anti-human IgG, GM-PE
Method: as §2

T1 sequence (chain, as listed by the source limits assumed): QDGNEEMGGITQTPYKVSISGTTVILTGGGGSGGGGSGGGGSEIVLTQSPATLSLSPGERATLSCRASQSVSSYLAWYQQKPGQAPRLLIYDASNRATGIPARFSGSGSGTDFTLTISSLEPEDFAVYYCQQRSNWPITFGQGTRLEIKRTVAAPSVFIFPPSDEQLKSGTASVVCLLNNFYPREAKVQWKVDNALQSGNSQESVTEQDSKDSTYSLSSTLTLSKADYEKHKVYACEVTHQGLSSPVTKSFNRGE
T2 sequence (P07766 23-207 limits assumed): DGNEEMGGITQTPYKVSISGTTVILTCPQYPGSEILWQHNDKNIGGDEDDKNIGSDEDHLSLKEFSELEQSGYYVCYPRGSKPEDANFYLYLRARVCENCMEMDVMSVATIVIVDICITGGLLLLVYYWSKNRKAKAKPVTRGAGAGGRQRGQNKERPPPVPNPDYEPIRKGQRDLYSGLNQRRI

B1: UniTE-huCD3-H1L1-LT41K (antibody, V domains shown)
VH: EVKLVESGGGLVQPGGSLRLSCAASGFTFNTYAMNWVRQAPGKGLEWVARIRSKYNNYATYYADSVKDRFTISRDDSKSSLYLQMNNLKTEDTAMYYCVRHGNFGNSYVSWFAYWGQGTLVTVSS
VL: not shown
notes: also called UniTE-huCD3-H1L1-LT41K (WT); UniTE-huCD3-H1L1-T41K
B1 was tested, and the Kd (CD3ε27-GSKa [1]) was 34 nM, the Ka (CD3ε27-GSKa [2]) was 3e+07 M⁻¹ and the Kd (CD3ε27-GSKa [2]) was 34 nM. The “Tcell binding average at 5000ng/ml (Geometric MFI)” value (“Tcell binding average at 5000ng/ml” for short) [3] was 13200 Geometric MFI.

B2: IgG1-huCD3-T31M-FEAL (antibody, V domains shown)
VH: B1 VH with T31M
VL: not shown
Work on B2 yielded a Kd (CD3ε27-GSKa [4]) of 99 nM and a pKD (CD3ε27-GSKa [4]) of 7.

B3: UniTE-huCD3-H1L1-T31A-LT41K (antibody, V domains shown)
VH: B1 VH with T31A
VL: not shown
notes: Monovalent UniBody-TE format
B3 was tested, and the “Tcell binding average at 5000ng/ml” value [3] was 10200 Geometric MFI.

B4: IgG1-huCD3-T31P-FEAL (antibody, V domains shown)
VH: B1 VH with T31P
VL: not shown
In the case of B4, the Kd (CD3ε27-GSKa [4]) is reported as 42 nM and the pKD (CD3ε27-GSKa [4]) is reported as 7.4.

B5: IgG1-huCD3-N57E-FEAL (antibody, V domains shown)
VH: B1 VH with N57E
VL: not shown
Binder B5 has a Kd (CD3ε27-GSKa [4]) of 91 nM and a pKD (CD3ε27-GSKa [4]) of 7.

B6: IgG1-huCD3-Y114M-FEAL (antibody, V domains shown)
VH: B1 VH with Y114M
VL: not shown
B6 gave a Kd (CD3ε27-GSKa [4]) of 42 nM and a pKD (CD3ε27-GSKa [4]) of 7.4.

B7: IgG1-huCD3-H101K-FEAL (antibody, V domains shown)
VH: B1 VH with H101K
VL: not shown
B7 was tested, and the Kd (CD3ε27-GSKa [4]) was 120 nM and the pKD (CD3ε27-GSKa [4]) was 6.9.

B8: UniTE-huCD3-H1L1-N57E-LT41K (antibody, V domains shown)
VH: B1 VH with N57E
VL: not shown
notes: Monovalent UniBody-TE format
Work on B8 yielded a Kd (CD3ε27-GSKa [1]) of 24 nM, a Ka (CD3ε27-GSKa [2]) of 4.1e+07 M⁻¹ and a Kd (CD3ε27-GSKa [2]) of 24 nM. The “Tcell binding average at 5000ng/ml” value [3] was 8490 Geometric MFI.

B9: UniTE-huCD3-H1L1-H101G-LT41K (antibody, V domains shown)
VH: B1 VH with H101G
VL: not shown
notes: Monovalent UniBody-TE format
Work on B9 yielded a Kd (CD3ε27-GSKa [1]) of 970 nM, a Ka (CD3ε27-GSKa [2]) of 1e+06 M⁻¹ and a Kd (CD3ε27-GSKa [2]) of 970 nM. The “Tcell binding average at 5000ng/ml” value [3] was 492 Geometric MFI.

B10: UniTE-huCD3-H1L1-Y114R-LT41K (antibody, V domains shown)
VH: B1 VH with Y114R
VL: not shown
notes: Monovalent UniBody-TE format
B10 was tested, and the “Tcell binding average at 5000ng/ml” value [3] was 6200 Geometric MFI.

B11: UniTE-huCD3-H1L1-Y114V-LT41K (antibody, V domains shown)
VH: B1 VH with Y114V
VL: not shown
B11 gave a Kd (CD3ε27-GSKa [1]) of 75 nM, a Ka (CD3ε27-GSKa [2]) of 1.3e+07 M⁻¹ and a Kd (CD3ε27-GSKa [2]) of 75 nM. For the same binder, the “Tcell binding average at 5000ng/ml” value [3] was 6020 Geometric MFI.

B12: UniTE-huCD3-H1L1-T31P-LT41K (antibody, V domains shown)
VH: B1 VH with T31P
VL: not shown
notes: Monovalent UniBody-TE format
With B12 the Kd (CD3ε27-GSKa [1]) was 49 nM, the Ka (CD3ε27-GSKa [2]) was 2e+07 M⁻¹ and the Kd (CD3ε27-GSKa [2]) was 49 nM. For the same binder, the “Tcell binding average at 5000ng/ml” value [3] was 4290 Geometric MFI.

B13: IgG1-huCD3-Y114V-FEAL (antibody, V domains shown)
VH: B1 VH with Y114V
VL: not shown
Work on B13 yielded a Kd (CD3ε27-GSKa [4]) of 29 nM and a pKD (CD3ε27-GSKa [4]) of 7.5.

B14: UniTE-huCD3-H1L1-H101N-LT41K (antibody, V domains shown)
VH: B1 VH with H101N
VL: not shown
notes: Monovalent UniBody-TE format
Binder B14 has a Kd (CD3ε27-GSKa [1]) of 200 nM, a Ka (CD3ε27-GSKa [2]) of 5.1e+06 M⁻¹ and a Kd (CD3ε27-GSKa [2]) of 200 nM. The “Tcell binding average at 5000ng/ml” value [3] was 848 Geometric MFI.

B15: IgG1-huCD3-Y114R-FEAL (antibody, V domains shown)
VH: B1 VH with Y114R
VL: not shown
For B15, the Kd (CD3ε27-GSKa [4]) was 46 nM and the pKD (CD3ε27-GSKa [4]) was 7.3.

B16: UniTE-huCD3-H1L1-S110A-LT41K (antibody, V domains shown)
VH: B1 VH with S110A
VL: not shown
notes: Monovalent UniBody-TE format
Binder B16 has a Kd (CD3ε27-GSKa [1]) of 320 nM, a Ka (CD3ε27-GSKa [2]) of 3.1e+06 M⁻¹ and a Kd (CD3ε27-GSKa [2]) of 320 nM. For the same binder, the “Tcell binding average at 5000ng/ml” value [3] was 1660 Geometric MFI.

B17: IgG1-huCD3-S110G-FEAL (antibody, V domains shown)
VH: B1 VH with S110G
VL: not shown
B17 was tested, and the Kd (CD3ε27-GSKa [4]) was 153 nM and the pKD (CD3ε27-GSKa [4]) was 6.8.

B18: UniTE-huCD3-H1L1-S110G-LT41K (antibody, V domains shown)
VH: B1 VH with S110G
VL: not shown
notes: Monovalent UniBody-TE format
Binder B18 has a Kd (CD3ε27-GSKa [1]) of 61 nM, a Ka (CD3ε27-GSKa [2]) of 1.6e+07 M⁻¹ and a Kd (CD3ε27-GSKa [2]) of 61 nM. For the same binder, the “Tcell binding average at 5000ng/ml” value [3] was 949 Geometric MFI.

B19: UniTE-huCD3-H1L1-Y114M-LT41K (antibody, V domains shown)
VH: B1 VH with Y114M
VL: not shown
notes: Monovalent UniBody-TE format
B19 was tested, and the Kd (CD3ε27-GSKa [1]) was 76 nM, the Ka (CD3ε27-GSKa [2]) was 1.3e+07 M⁻¹ and the Kd (CD3ε27-GSKa [2]) was 76 nM. The “Tcell binding average at 5000ng/ml” value [3] was 3830 Geometric MFI.

B20: IgG1-huCD3-S110A-FEAL (antibody, V domains shown)
VH: B1 VH with S110A
VL: not shown
B20 was tested, and the Kd (CD3ε27-GSKa [4]) was 72 nM and the pKD (CD3ε27-GSKa [4]) was 7.1.

B21: UniTE-huCD3-H1L1-G105P-LT41K (antibody, V domains shown)
VH: B1 VH with G105P
VL: not shown
notes: Monovalent UniBody-TE format
B21 gave a Kd (CD3ε27-GSKa [1]) of 35 nM, a Ka (CD3ε27-GSKa [2]) of 2.8e+07 M⁻¹ and a Kd (CD3ε27-GSKa [2]) of 35 nM. The “Tcell binding average at 5000ng/ml” value [3] was 10500 Geometric MFI.

B22: IgG1-huCD3-Y32A-FEAL (antibody, V domains shown)
VH: B1 VH with Y32A
VL: not shown
In the case of B22, the Kd (CD3ε27-GSKa [4]) is reported as 105 nM and the pKD (CD3ε27-GSKa [4]) is reported as 7.

B23: UniTE-huCD3-H1L1-Y32A-LT41K (antibody, V domains shown)
VH: B1 VH with Y32A
VL: not shown
notes: Monovalent UniBody-TE format
B23 was tested, and the “Tcell binding average at 5000ng/ml” value [3] was 719 Geometric MFI.

B24: UniTE-huCD3-H1L1-H101F-LT41K (antibody, V domains shown)
VH: B1 VH with H101F
VL: not shown
notes: Monovalent UniBody-TE format
B24 was tested, and the binding result [5] was “no binding (tested: 5000 ng/mL)” and the “Tcell binding average at 5000ng/ml” value [3] was 641 Geometric MFI.

B25: IgG1-huCD3-G105P-FEAL (antibody, V domains shown)
VH: B1 VH with G105P
VL: not shown
In the case of B25, the Kd (CD3ε27-GSKa [4]) is reported as 5 nM and the pKD (CD3ε27-GSKa [4]) is reported as 8.3.

B26: UniTE-huCD3-H1L1-H101I-LT41K (antibody, V domains shown)
VH: B1 VH with H101I
VL: not shown
notes: Monovalent UniBody-TE format
Binder B26 has a Kd (CD3ε27-GSKa [1]) of 220 nM, a Ka (CD3ε27-GSKa [2]) of 4.6e+06 M⁻¹ and a Kd (CD3ε27-GSKa [2]) of 220 nM.

B27: UniTE-huCD3-H1L1-T31M-LT41K (antibody, V domains shown)
VH: B1 VH with T31M
VL: not shown
notes: Monovalent UniBody-TE format
With B27 the Kd (CD3ε27-GSKa [1]) was 200 nM, the Ka (CD3ε27-GSKa [2]) was 5.1e+06 M⁻¹ and the Kd (CD3ε27-GSKa [2]) was 200 nM. The “Tcell binding average at 5000ng/ml” value [3] was 1920 Geometric MFI.

B28: IgG1-huCD3-H101L-FEAL (antibody, V domains shown)
VH: B1 VH with H101L
VL: not shown
B28 gave a Kd (CD3ε27-GSKa [4]) of 107 nM and a pKD (CD3ε27-GSKa [4]) of 7.

B29: IgG1-huCD3-H101N-FEAL (antibody, V domains shown)
VH: B1 VH with H101N
VL: not shown
With B29 the Kd (CD3ε27-GSKa [4]) was 45 nM and the pKD (CD3ε27-GSKa [4]) was 7.3.

B30: UniTE-huCD3-H1L1-H101K-LT41K (antibody, V domains shown)
VH: B1 VH with H101K
VL: not shown
notes: Monovalent UniBody-TE format
In the case of B30, the “Tcell binding average at 5000ng/ml” value [3] is reported as 1320 Geometric MFI.
